Data from patent publication US20050118674A1, “Engineering of Controlled Deamidation Rates in Peptides, Proteins, and Similar Structures” (priority 2003, published 2005).

Assay: First-order nonenzymatic deamidation of pentapeptides in Tris buffer
Assay type: physicochemical
Conditions: 0.15 M Tris HCl; for First-Order Deamidation Halftimes of GlyXxxAsnYyyGly: pH 7.4, 37.0° C., Asn pentapeptides; for First-Order Deamidation Halftimes of GlyXxxGlnYyyGly: pH 7.4, 37.0 ° C., Gln pentapeptides, 52 values measured, rest derived from surface fitting
How it was run: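 First-order deamidation rates determined for XxxAsnYyy and XxxGlnYyy pentapeptides in 0.15 M Tris buffer, pH 7.4, 37° C. Not all values were measured directly: several Asn rates were estimated and most Gln rates came from surface fitting.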

Q: For “GlyIleAsnValGly (GINVG; printed: GlyIleAsnValGly)”, which “First-Order Deamidation Halftimes of GlyXxxAsnYyyGly” value is on record?
A: 295 days

Q: Which “First-Order Deamidation Halftimes of GlyXxxGlnYyyGly” value does the source give for “GlyIleGlnAlaGly (GIQAG; printed: GlyIleGlnAlaGly)” here?
A: 6200 days

Q: Which “First-Order Deamidation Halftimes of GlyXxxGlnYyyGly” value does the source give for “GlyIleGlnArgGly (GIQRG; printed: GlyIleGlnArgGly)” here?
A: 7200 days

Q: With “GlyIleGlnAspGly (GIQDG; printed: GlyIleGlnAspGly)” as the substance, how does the “First-Order Deamidation Halftimes of GlyXxxGlnYyyGly” value read?
A: 8100 days

Q: For “GlyIleGlnCysGly (GIQCG; printed: GlyIleGlnCysGly)”, which “First-Order Deamidation Halftimes of GlyXxxGlnYyyGly” value is on record?
A: 2000 days

Q: Which “First-Order Deamidation Halftimes of GlyXxxGlnYyyGly” value does the source give for “GlyIleGlnGluGly (GIQEG; printed: GlyIleGlnGluGly)” here?
A: 7700 days

Q: Which “First-Order Deamidation Halftimes of GlyXxxGlnYyyGly” value does the source give for “GlyIleGlnGlyGly (GIQGG; printed: GlyIleGlnGlyGly)” here?
A: 620 days

Q: For “GlyIleGlnHisGly (GIQHG; printed: GlyIleGlnHisGly)”, which “First-Order Deamidation Halftimes of GlyXxxGlnYyyGly” value is on record?
A: 6100 days

Q: With “GlyIleGlnIleGly (GIQIG; printed: GlyIleGlnIleGly)” as the substance, how does the “First-Order Deamidation Halftimes of GlyXxxGlnYyyGly” value read?
A: 6500 days

Q: For “GlyIleGlnLeuGly (GIQLG; printed: GlyIleGlnLeuGly)”, which “First-Order Deamidation Halftimes of GlyXxxGlnYyyGly” value is on record?
A: 6300 days

Q: For “GlyIleGlnLysGly (GIQKG; printed: GlyIleGlnLysGly)”, which “First-Order Deamidation Halftimes of GlyXxxGlnYyyGly” value is on record?
A: 6100 days

Q: Which “First-Order Deamidation Halftimes of GlyXxxGlnYyyGly” value does the source give for “GlyIleGlnMetGly (GIQMG; printed: GlyIleGlnMetGly)” here?
A: 5100 days

Q: With “GlyIleGlnPheGly (GIQFG; printed: GlyIleGlnPheGly)” as the substance, how does the “First-Order Deamidation Halftimes of GlyXxxGlnYyyGly” value read?
A: 8100 days

Q: With “GlyIleGlnProGly (GIQPG; printed: GlyIleGlnProGly)” as the substance, how does the “First-Order Deamidation Halftimes of GlyXxxGlnYyyGly” value read?
A: 10000 days

Q: With “GlyIleGlnSerGly (GIQSG; printed: GlyIleGlnSerGly)” as the substance, how does the “First-Order Deamidation Halftimes of GlyXxxGlnYyyGly” value read?
A: 5800 days

Q: For “GlyIleGlnThrGly (GIQTG; printed: GlyIleGlnThrGly)”, which “First-Order Deamidation Halftimes of GlyXxxGlnYyyGly” value is on record?
A: 5300 days

Q: For “GlyIleGlnTrpGly (GIQWG; printed: GlyIleGlnTrpGly)”, which “First-Order Deamidation Halftimes of GlyXxxGlnYyyGly” value is on record?
A: 16000 days

Q: Which “First-Order Deamidation Halftimes of GlyXxxGlnYyyGly” value does the source give for “GlyIleGlnTyrGly (GIQYG; printed: GlyIleGlnTyrGly)” here?
A: 12000 days

Q: For “GlyIleGlnValGly (GIQVG; printed: GlyIleGlnValGly)”, which “First-Order Deamidation Halftimes of GlyXxxGlnYyyGly” value is on record?
A: 7100 days

Q: With “GlyLeuAsnAlaGly (GLNAG; printed: GlyLeuAsnAlaGly)” as the substance, how does the “First-Order Deamidation Halftimes of GlyXxxAsnYyyGly” value read?
A: 25.1 days

Q: For GlyLeuAsnAmCysGly, which “First-Order Deamidation Halftimes of GlyXxxAsnYyyGly” value is on record?
A: 33.6 days

Q: Which “First-Order Deamidation Halftimes of GlyXxxAsnYyyGly” value does the source give for “GlyLeuAsnArgGly (GLNRG; printed: GlyLeuAsnArgGly)” here?
A: 62.1 days

Q: Which “First-Order Deamidation Halftimes of GlyXxxAsnYyyGly” value does the source give for “GlyLeuAsnAspGly (GLNDG; printed: GlyLeuAsnAspGly)” here?
A: 32.1 days

Q: With “GlyLeuAsnCysGly (GLNCG; printed: GlyLeuAsnCysGly)” as the substance, how does the “First-Order Deamidation Halftimes of GlyXxxAsnYyyGly” value read?
A: 53.5 days

Q: Which “First-Order Deamidation Halftimes of GlyXxxAsnYyyGly” value does the source give for “GlyLeuAsnGluGly (GLNEG; printed: GlyLeuAsnGluGly)” here?
A: 56.7 days

Q: For “GlyLeuAsnGlyGly (GLNGG; printed: GlyLeuAsnGlyGly)”, which “First-Order Deamidation Halftimes of GlyXxxAsnYyyGly” value is on record?
A: 1.08 days

Q: For “GlyLeuAsnHisGly (GLNHG; printed: GlyLeuAsnHisGly)”, which “First-Order Deamidation Halftimes of GlyXxxAsnYyyGly” value is on record?
A: 10.7 days

Q: With “GlyLeuAsnIleGly (GLNIG; printed: GlyLeuAsnIleGly)” as the substance, how does the “First-Order Deamidation Halftimes of GlyXxxAsnYyyGly” value read?
A: 391 days

Q: With “GlyLeuAsnLeuGly (GLNLG; printed: GlyLeuAsnLeuGly)” as the substance, how does the “First-Order Deamidation Halftimes of GlyXxxAsnYyyGly” value read?
A: 155 days

Q: For “GlyLeuAsnLysGly (GLNKG; printed: GlyLeuAsnLysGly)”, which “First-Order Deamidation Halftimes of GlyXxxAsnYyyGly” value is on record?
A: 60.1 days

Q: Which “First-Order Deamidation Halftimes of GlyXxxAsnYyyGly” value does the source give for “GlyLeuAsnMetGly (GLNMG; printed: GlyLeuAsnMetGly)” here?
A: 62.6 days

Q: For “GlyLeuAsnPheGly (GLNFG; printed: GlyLeuAsnPheGly)”, which “First-Order Deamidation Halftimes of GlyXxxAsnYyyGly” value is on record?
A: 72.4 days

Q: For “GlyLeuAsnProGly (GLNPG; printed: GlyLeuAsnProGly)”, which “First-Order Deamidation Halftimes of GlyXxxAsnYyyGly” value is on record?
A: 10500 days

Q: With “GlyLeuAsnSerGly (GLNSG; printed: GlyLeuAsnSerGly)” as the substance, how does the “First-Order Deamidation Halftimes of GlyXxxAsnYyyGly” value read?
A: 16.7 days

Q: With “GlyLeuAsnThrGly (GLNTG; printed: GlyLeuAsnThrGly)” as the substance, how does the “First-Order Deamidation Halftimes of GlyXxxAsnYyyGly” value read?
A: 46.1 days

Q: Which “First-Order Deamidation Halftimes of GlyXxxAsnYyyGly” value does the source give for “GlyLeuAsnTrpGly (GLNWG; printed: GlyLeuAsnTrpGly)” here?
A: 74.5 days

Q: For “GlyLeuAsnTyrGly (GLNYG; printed: GlyLeuAsnTyrGly)”, which “First-Order Deamidation Halftimes of GlyXxxAsnYyyGly” value is on record?
A: 75.7 days

Q: With “GlyLeuAsnValGly (GLNVG; printed: GlyLeuAsnValGly)” as the substance, how does the “First-Order Deamidation Halftimes of GlyXxxAsnYyyGly” value read?
A: 294 days

Q: Which “First-Order Deamidation Halftimes of GlyXxxGlnYyyGly” value does the source give for “GlyLeuGlnAlaGly (GLQAG; printed: GlyLeuGlnAlaGly)” here?
A: 6000 days

Q: With “GlyLeuGlnArgGly (GLQRG; printed: GlyLeuGlnArgGly)” as the substance, how does the “First-Order Deamidation Halftimes of GlyXxxGlnYyyGly” value read?
A: 7200 days

Q: Which “First-Order Deamidation Halftimes of GlyXxxGlnYyyGly” value does the source give for “GlyLeuGlnAspGly (GLQDG; printed: GlyLeuGlnAspGly)” here?
A: 7800 days

Q: With “GlyLeuGlnCysGly (GLQCG; printed: GlyLeuGlnCysGly)” as the substance, how does the “First-Order Deamidation Halftimes of GlyXxxGlnYyyGly” value read?
A: 2000 days

Q: For “GlyLeuGlnGluGly (GLQEG; printed: GlyLeuGlnGluGly)”, which “First-Order Deamidation Halftimes of GlyXxxGlnYyyGly” value is on record?
A: 7400 days

Q: With “GlyLeuGlnGlyGly (GLQGG; printed: GlyLeuGlnGlyGly)” as the substance, how does the “First-Order Deamidation Halftimes of GlyXxxGlnYyyGly” value read?
A: 670 days

Q: With “GlyLeuGlnHisGly (GLQHG; printed: GlyLeuGlnHisGly)” as the substance, how does the “First-Order Deamidation Halftimes of GlyXxxGlnYyyGly” value read?
A: 6100 days

Q: Which “First-Order Deamidation Halftimes of GlyXxxGlnYyyGly” value does the source give for “GlyLeuGlnIleGly (GLQIG; printed: GlyLeuGlnIleGly)” here?
A: 6500 days

Q: For “GlyLeuGlnLeuGly (GLQLG; printed: GlyLeuGlnLeuGly)”, which “First-Order Deamidation Halftimes of GlyXxxGlnYyyGly” value is on record?
A: 6300 days

Q: For “GlyLeuGlnLysGly (GLQKG; printed: GlyLeuGlnLysGly)”, which “First-Order Deamidation Halftimes of GlyXxxGlnYyyGly” value is on record?
A: 6100 days

Q: For “GlyLeuGlnMetGly (GLQMG; printed: GlyLeuGlnMetGly)”, which “First-Order Deamidation Halftimes of GlyXxxGlnYyyGly” value is on record?
A: 4800 days

Q: Which “First-Order Deamidation Halftimes of GlyXxxGlnYyyGly” value does the source give for “GlyLeuGlnPheGly (GLQFG; printed: GlyLeuGlnPheGly)” here?
A: 8000 days

Q: Which “First-Order Deamidation Halftimes of GlyXxxGlnYyyGly” value does the source give for “GlyLeuGlnProGly (GLQPG; printed: GlyLeuGlnProGly)” here?
A: 10000 days

Q: With “GlyLeuGlnSerGly (GLQSG; printed: GlyLeuGlnSerGly)” as the substance, how does the “First-Order Deamidation Halftimes of GlyXxxGlnYyyGly” value read?
A: 5800 days

Q: For “GlyLeuGlnThrGly (GLQTG; printed: GlyLeuGlnThrGly)”, which “First-Order Deamidation Halftimes of GlyXxxGlnYyyGly” value is on record?
A: 5300 days

Q: Which “First-Order Deamidation Halftimes of GlyXxxGlnYyyGly” value does the source give for “GlyLeuGlnTrpGly (GLQWG; printed: GlyLeuGlnTrpGly)” here?
A: 16000 days

Q: With “GlyLeuGlnTyrGly (GLQYG; printed: GlyLeuGlnTyrGly)” as the substance, how does the “First-Order Deamidation Halftimes of GlyXxxGlnYyyGly” value read?
A: 12000 days

Q: With “GlyLeuGlnValGly (GLQVG; printed: GlyLeuGlnValGly)” as the substance, how does the “First-Order Deamidation Halftimes of GlyXxxGlnYyyGly” value read?
A: 6800 days

Q: For “GlyLysAsnAlaGly (GKNAG; printed: GlyLysAsnAlaGly)”, which “First-Order Deamidation Halftimes of GlyXxxAsnYyyGly” value is on record?
A: 23.6 days

Q: For GlyLysAsnAmCysGly, which “First-Order Deamidation Halftimes of GlyXxxAsnYyyGly” value is on record?
A: 36.5 days

Q: With “GlyLysAsnArgGly (GKNRG; printed: GlyLysAsnArgGly)” as the substance, how does the “First-Order Deamidation Halftimes of GlyXxxAsnYyyGly” value read?
A: 57.4 days
